Source: PMC2827695 (Journal of the American Society for Mass Spectrometry, 2009)

Biological target: T1, IFNAR1 (UniProt P17181 28-436)
T1 sequence (looked up): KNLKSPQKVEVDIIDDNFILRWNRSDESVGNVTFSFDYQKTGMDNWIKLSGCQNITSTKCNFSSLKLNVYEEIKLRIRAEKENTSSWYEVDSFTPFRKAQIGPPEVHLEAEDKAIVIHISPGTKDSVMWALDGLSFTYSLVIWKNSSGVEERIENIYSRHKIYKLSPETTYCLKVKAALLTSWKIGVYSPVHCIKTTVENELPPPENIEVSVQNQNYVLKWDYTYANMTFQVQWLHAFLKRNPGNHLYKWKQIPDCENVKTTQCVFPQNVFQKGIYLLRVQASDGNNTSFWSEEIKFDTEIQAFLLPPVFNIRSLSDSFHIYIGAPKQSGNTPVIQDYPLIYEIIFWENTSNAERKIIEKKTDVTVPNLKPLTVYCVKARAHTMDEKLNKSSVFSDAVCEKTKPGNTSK
Assay: native MS

B1: Interferon-β1a (ligand, UniProt P01574 22-187, looked up)
chain: MSYNLLGFLQRSSNFQCQKLLWQLNGRLEYCLKDRMNFDIPEEIKQLQQFQKEDAALTIYEMLQNIFAIFRQDSSSTGWNETIVENLLANVYHQINHLKTVLEEKLEKEDFTRGKLMSSLHLKRYYGRILHYLKAKEYSHCAWTIVRVEILRNFYFINRLTGYLRN
modifications: glycoprotein with a carbohydrate chain, several glycoforms (glycosylation site printed as Asn-90)
- stoichiometry N: 1
